Data from publication PMC5012860, “Hemi-methylated DNA regulates DNA methylation inheritance through allosteric activation of H3 ubiquitylation by UHRF1” (eLife, 2016).

What was measured:
[1] = biological target: T1, MBP-SRA-RING DNA^mut (G448D) (human, UniProt Q96T88 405-793, G448D); experiment: pull-down; as a2 with SRA-RING DNA^mut in the presence of 5 uM DNA; settings: both partners purified
T1 construct: human UHRF1 SRA-RING, amino acids 405-793, with G448D (DNA^mut); source: E. coli, purified as described for UHRF1
T1 sequence (looked up): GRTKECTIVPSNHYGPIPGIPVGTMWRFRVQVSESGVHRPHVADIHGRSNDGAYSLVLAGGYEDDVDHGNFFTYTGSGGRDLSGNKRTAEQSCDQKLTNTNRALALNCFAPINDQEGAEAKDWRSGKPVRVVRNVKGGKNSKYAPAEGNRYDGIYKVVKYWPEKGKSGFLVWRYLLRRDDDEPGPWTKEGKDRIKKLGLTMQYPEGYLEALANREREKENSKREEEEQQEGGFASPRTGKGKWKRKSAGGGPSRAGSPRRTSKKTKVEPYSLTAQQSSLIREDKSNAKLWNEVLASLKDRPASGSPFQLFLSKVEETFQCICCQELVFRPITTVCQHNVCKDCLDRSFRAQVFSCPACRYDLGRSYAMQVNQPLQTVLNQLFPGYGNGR

[2] = biological target: T2, His-MBP-tagged UHRF1 SRA-RING (amino acids 405-793) (human, UniProt Q96T88 405-793); experiment: pull-down; proteins each at 1 uM incubated overnight at 4 C with MBP magnetic beads in 50 mM Tris-HCl pH 8.0, 100 mM NaCl, 0.1% NP-40, 0.5% BSA; blot with GST antibody; also done with 25 uM H3_(1-20)K9me2 peptide, which did not inhibit; settings: both partners purified
T2 construct: human UHRF1 SRA-RING, amino acids 405-793; also called MBP-SRA-RING; source: E. coli, purified as described for UHRF1
T2 sequence (looked up): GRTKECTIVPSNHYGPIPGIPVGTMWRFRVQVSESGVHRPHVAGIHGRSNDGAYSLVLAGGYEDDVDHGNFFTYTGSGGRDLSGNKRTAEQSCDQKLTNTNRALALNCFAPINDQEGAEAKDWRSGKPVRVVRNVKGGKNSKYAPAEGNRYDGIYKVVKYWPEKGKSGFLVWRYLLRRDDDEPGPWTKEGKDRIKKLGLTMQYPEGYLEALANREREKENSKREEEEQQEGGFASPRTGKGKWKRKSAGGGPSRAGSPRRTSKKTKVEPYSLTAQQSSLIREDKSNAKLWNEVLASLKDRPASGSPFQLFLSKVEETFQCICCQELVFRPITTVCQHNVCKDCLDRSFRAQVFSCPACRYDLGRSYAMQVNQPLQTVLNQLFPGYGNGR

binding result [1]: binds | binding result [2]: binds
B1: GST-tagged UHRF1 TTD-PHD (amino acids 123-366) (domain or fragment, human, UniProt Q96T88 123-366, looked up)
chain: DEDMWDETELGLYKVNEYVDARDTNMGAWFEAQVVRVTRKAPSRDEPCSSTSRPALEEDVIYHVKYDDYPENGVVQMNSRDVRARARTIIKWQDLEVGQVVMLNYNPDNPKERGFWYDAEISRKRETRTARELYANVVLGDDSLNDCRIIFVDEVFKIERPGEGSPMVDNPMRRKSGPSCKHCKDDVNRLCRVCACHLCGGRQDPDKQLMCDECDMAFHIYCLDPPLSSVPSEDEWYCPECRND
notes: human UHRF1 linked tandem Tudor domain and plant homeodomain (TTD-PHD), amino acids 123-366; also called GST-TTD-PHD; source: produced as previously described (Rothbart et al., 2013)
